Paper PMC4421793, “A secretory kinase complex regulates extracellular protein phosphorylation” (eLife, 2015)

B1: Fam20C (93–584), recombinant (enzyme, human, UniProt Q8IXL6 93-584, looked up)
chain: DFSSDPSSNLSSHSLEKLPPAAEPAERALRGRDPGALRPHDPAHRPLLRDPGPRRSESPPGPGGDASLLARLFEHPLYRVAVPPLTEEDVLFNVNSDTRLSPKAAENPDWPHAGAEGAEFLSPGEAAVDSYPNWLKFHIGINRYELYSRHNPAIEALLHDLSSQRITSVAMKSGGTQLKLIMTFQNYGQALFKPMKQTREQETPPDFFYFSDYERHNAEIAAFHLDRILDFRRVPPVAGRMVNMTKEIRDVTRDKKLWRTFFISPANNICFYGECSYYCSTEHALCGKPDQIEGSLAAFLPDLSLAKRKTWRNPWRRSYHKRKKAEWEVDPDYCEEVKQTPPYDSSHRILDVMDMTIFDFLMGNMDRHHYETFEKFGNETFIIHLDNGRGFGKYSHDELSILVPLQQCCRIRKSTYLRLQLLAKEEYKLSLLMAESLRGDQVAPVLYQPHLEALDRRLRVVLKAVRDCVERNGLHSVVDDDLDTEHRAASAR
notes: human Fam20C, residues 93-584; also called recombinant Fam20C; source: Hi5 insect cells, purified from the conditioned medium (MBP tag removed by TEV protease digestion and gel filtration)

Key:
[1] = target: the molecule itself; experiment: SEC; one purified protein alone on Superdex 200 in 25 mM Tris-HCl pH 7.4, 150 mM NaCl; oligomeric state judged from the elution profile
[2] = target: B1; experiment: SEC; two purified proteins (1 mg/ml each) incubated on ice for 2 hr, then Superdex 200 in 25 mM Tris-HCl pH 7.4, 150 mM NaCl; fractions on SDS-PAGE, Coomassie; details: both partners purified
[3] = target: B1; experiment: cell-based or functional assay

Row | Binder | stoichiometry N [1] | stoichiometry N [2] | Km of Fam20C (2 μg/ml) for ENAM (173–277) S191A with excess Fam20A (40 μg/ml); 14.6 μM without Fam20A, a ∼2.5-fold decrease [3] [µM] | kcat of Fam20C (2 μg/ml) for ENAM (173–277) S191A with excess Fam20A (40 μg/ml); 0.04 s^−1 without Fam20A, a 19-fold increase [3] [s⁻¹]
1 | B1 | 2 | – | – | –
2 | Fam20A (63–529), recombinant (domain or fragment, human, UniProt Q96MK3 63-529, looked up, human Fam20A, residues 63-529; Cloned into a modified pI-secSUMOstar vector in which the SUMO tag was replaced by an MBP tag and a TEV site; also called recombinant Fam20A; source: Hi5 insect cells, purified from the conditioned medium (MBP tag removed by TEV protease digestion and gel filtration)) DPGTIVHNFSRTEPRTEPAGGSHSGSSSKLQALFAHPLYNVPEEPPLLGAEDSLLASQEALRYYRRKVARWNRRHKMYREQMNLTSLDPPLQLRLEASWVQFHLGINRHGLYSRSSPVVSKLLQDMRHFPTISADYSQDEKALLGACDCTQIVKPSGVHLKLVLRFSDFGKAMFKPMRQQRDEETPVDFFYFIDFQRHNAEIAAFHLDRILDFRRVPPTVGRIVNVTKEILEVTKNEILQSVFFVSPASNVCFFAKCPYMCKTEYAVCGNPHLLEGSLSAFLPSLNLAPRLSVPNPWIRSYTLAGKEEWEVNPLYCDTVKQIYPYNNSQRLLNVIDMAIFDFLIGNMDRHHYEMFTKFGDDGFLIHLDNARGFGRHSHDEISILSPLSQCCMIKKKTLLHLQLLAQADYRLSDVMRESLLEDQLSPVLTEPHLLALDRRLQTILRTVEGCIVAHGQQSVIVDGPVEQ | – | 1 | 5.6 | 0.76
